Test results taken from patent US20130143802A1.
Values belong to the substance of their own block, whether it stands above or below them.

What was measured:
[1] = biological target: interleukin 1 receptor (on human peripheral blood leukocytes RPMI 1788) (human (cells are stated to be human)) (UniProt P14778); test: cell-based or functional assay
alpha-amylase = test: cell-based or functional assay

UniProt P14778, sequence (P14778 18-569): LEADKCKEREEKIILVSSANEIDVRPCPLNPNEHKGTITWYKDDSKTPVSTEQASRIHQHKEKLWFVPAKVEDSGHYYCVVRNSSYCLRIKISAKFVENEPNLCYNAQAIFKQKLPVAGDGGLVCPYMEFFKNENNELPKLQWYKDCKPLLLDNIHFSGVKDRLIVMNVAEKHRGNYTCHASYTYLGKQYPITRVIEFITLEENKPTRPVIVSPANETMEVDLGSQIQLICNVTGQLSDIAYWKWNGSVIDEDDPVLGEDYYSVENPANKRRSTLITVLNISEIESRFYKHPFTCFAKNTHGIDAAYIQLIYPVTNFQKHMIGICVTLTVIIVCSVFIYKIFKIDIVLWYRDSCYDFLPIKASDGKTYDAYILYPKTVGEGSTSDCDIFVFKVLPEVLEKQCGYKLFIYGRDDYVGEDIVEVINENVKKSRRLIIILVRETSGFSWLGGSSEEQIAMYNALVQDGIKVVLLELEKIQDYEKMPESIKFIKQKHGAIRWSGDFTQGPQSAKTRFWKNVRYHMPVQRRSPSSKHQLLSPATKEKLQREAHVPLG

specific activity: EC50 value in µg/mL, inhibition of proliferation of RPMI 1788 cells (CellTiter Glo assay) [1]: 0.5 µg/mL
Substance: ELP/IL-1Ra fusion protein (ELP1 [V5A2G3-90] - … - interleukin 1 receptor antagonist) (from UniProt P18510 26-177)

potency relative to ELP/IL-1Ra in the cell proliferation assay [1]: 4 fold
specific activity: EC50 value in µg/mL, inhibition of proliferation of RPMI 1788 cells (CellTiter Glo assay) [1]: 2 µg/mL
Substance: IL-1Ra/ELP fusion protein (interleukin 1 receptor antagonist - … - ELP1 [V5A2G3-90]) (from UniProt P18510 26-177)

α-amylase inhibition activity (colorimetric α-amylase inhibition assay) (alpha-amylase): 2 fold
Substance: ternary thioredoxin-ELP-tendamistat fusion (thioredoxin/90-mer ELP/tendamistat) (from UniProt P01092 31-104)

EC50, inhibition of proliferation of RPMI 1788 cells (CellTiter Glo assay) [1]: 0.0016 µg/mL
activity relative to IL-1Ra/ELP in the cell proliferation assay [1]: 300 fold
Substance: un-fused, commercially available interleukin 1 receptor antagonist (from UniProt P18510 26-177) (ligand)
